Source: patent US20240025999A1 (BIOVENTURES, published 2024)

T1: HPV 16 E6 91-115 region, given as three overlapping 15-mer peptides (91-105 YGTTLEQQYNKPLCD, SEQ ID NO:21); … (human papillomavirus type 16)
T1 peptide: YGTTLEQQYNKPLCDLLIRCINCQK

B1: TCR of clonotype 3 (TCR beta CDR3 CASSFPGENEQFF, SEQ ID NO:3), HPV 16 E6 91-115 specific T cell clonotype of subject 6 (TCR, V domains shown)
V domain 1: GDSVTQMEGPVTLSEEAFLTINCTYTATGYPSLFWYVQYPGEGLQLLLKATKADDKGSNKGFEATYRKETTSFHLEKGSVQVSDSAVYFCALTLSGSARQLTFGSGTQLTVLP
V domain 2: DAGVIQSPRHEVTEMGQEVTLRCKPISGHNSLFWYRQTMMRGLELLIYFNNNVPIDDSGMPEDRFSAKMPNASFSTLKIQPSEPRDSAVYFCASSFPGENEQFFGPGTRLTVLE
B2: TCR of clonotype 2 (TCR beta CDR3 CASSHNSGREGNEQFF, SEQ ID NO:2), HPV 16 E6 91-115 specific T cell clonotype of subject 6 (TCR, V domains shown)
V domain 1: GENVEQHPSTLSVQEGDSAVIKCTYSDSASNYFPWYKQELGKRPQLIIDIRSNVGEKKDQRIAVTLNKTAKHFSLHITETQPEDSAVYFCAPRVTGGGNKLTFGTGTQLKVEL
V domain 2: GAGVSQSPRYKVAKRGQDVALRCDPISGHVSLFWYQQALGQGPEFLTYFQNEAQLDKSGLPSDRFFAERPEGSVSTLKIQRTQQEDSAVYLCASSHNSGREGNEQFFGPGTRLTVLE
B3: TCR of clonotype 4 (TCR beta CDR3 CASSWEAGQETQYF, SEQ ID NO:4), HPV 16 E6 91-115 specific T cell clonotype of subject 6 (TCR, V domains shown)
V domain 1: GENVEQHPSTLSVQEGDSAVIKCTYSDSASNYFPWYKQELGKGPQLIIDIRSNVGEKKDQRIAVTLNKTAKHFSLHITETQPEDSAVYFCAASAPGRTDKLIFGTGTRLQVFP
V domain 2: KAGVTQTPRYLIKTRGQQVTLSCSPISGHRSVSWYQQTPGQGLQFLFEYFSETQRNKGNFPGRFSGRQFSNSRSEMNVSTLELGDSALYLCASSWEAGQETQYFGPGTRLLVLE
B4: TCR of clonotype 1 (TCR beta CDR3 CASSPTSGGLTWDEQYF, SEQ ID NO:1), HPV 16 E6 91-115 specific T cell clonotype of subject 6 (TCR, V domains shown)
V domain 1: AQSVAQPEDQVNVAEGNPLTVKCTYSVSGNPYLFWYVQYPNRGLQFLLKYITGDNLVKGSYGFEAEFNKSQTSFHLKKPSALVSDSALYFCAVRAPSGSARQLTFGSGTQLTVLP
V domain 2: EAGVAQSPRYKIIEKRQSVAFWCNPISGHATLYWYQQILGQGPKLLIQFQNNGVVDDSQLPKDRFSAERLKGVDSTLKIQPAKLEDSAVYLCASSPTSGGLTWDEQYFGPGTRLTVTE

Biological target: T1, HPV 16 E6 91-115 region, given as three …
Experiment: cell-based or functional assay

Binder | Frequency (%) of the clonotype among IFN-gamma secreting cells sorted after peptide stimulation
B1 | 9.8%
B2 | 17%
B3 | 8.6%
B4 | 33.3%
